In assay [1] the target is Biotinylated Ub-CHIP (monoubiquitinated CHIP) (UniProt P0CG48). The assay is described as follows: BLI. A general note: Biolayer interferometry detects binding as a change in optical thickness at a sensor tip.
A further assay concerns the target Biotinylated CHIP (UniProt Q9UNE7). Nature of the assay: BLI.
Sequence of UniProt Q9UNE7 (Q9UNE7 whole entry): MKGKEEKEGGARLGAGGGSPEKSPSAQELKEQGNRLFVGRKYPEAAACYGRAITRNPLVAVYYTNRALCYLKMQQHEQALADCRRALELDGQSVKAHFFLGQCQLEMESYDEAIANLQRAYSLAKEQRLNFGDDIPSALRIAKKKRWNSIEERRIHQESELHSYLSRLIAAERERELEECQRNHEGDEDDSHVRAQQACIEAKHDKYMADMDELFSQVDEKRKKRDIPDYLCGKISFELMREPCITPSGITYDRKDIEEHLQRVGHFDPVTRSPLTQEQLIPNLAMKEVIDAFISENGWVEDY

In the case of “ataxin-3, normal (Q22), recombinant (from UniProt P54252 1-361) (enzyme)”, the Kd – broadly, the free concentration of one partner at which half of the binding sites on the other are occupied at equilibrium, for simple one-to-one binding – in assay [1] was 120 nM; in the assay with Biotinylated CHIP, 2200 nM.
The like results for “ataxin-3, polyglutamine-expanded (Q80), recombinant (from UniProt P54252 1-361) (enzyme)” were, in that order, 750 nM and 390 nM.

(Values after article PMC3166620.)
